Data set [1] deals with T1, CcpA (catabolite control protein A) (Staphylococcus aureus XN108 (clinical isolate)?) (UniProt P99175).
T1 sequence: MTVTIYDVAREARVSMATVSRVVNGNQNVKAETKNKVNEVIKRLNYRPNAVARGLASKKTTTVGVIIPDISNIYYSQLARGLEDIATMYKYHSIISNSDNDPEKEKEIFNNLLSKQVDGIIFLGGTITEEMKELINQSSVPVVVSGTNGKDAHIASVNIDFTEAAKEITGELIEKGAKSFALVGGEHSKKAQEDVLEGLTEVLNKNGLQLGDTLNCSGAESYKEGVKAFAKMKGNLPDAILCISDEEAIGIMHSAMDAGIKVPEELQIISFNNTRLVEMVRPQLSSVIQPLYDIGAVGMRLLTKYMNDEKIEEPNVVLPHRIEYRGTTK
Kind of data set: EMSA.

Data set [2] has as its target T1, CcpA (catabolite control protein A) (Staphylococcus aureus XN108 (clinical isolate)?). The data set is described as follows: competition.

Take “GGCGCTTCCTCCAAATATAATATATTTGTTTTTATTTATCTCTTTTTATAGCTAACACCCTTATTTAAGATGATAAATATCAACAACTTCATTTTATATTGAGAAAATATTAAAAATCAATAAAATATTAAAAGAAACTAAACTTACATTAAAAAATAATTAACAAATATTTAACATTTTAACCTAAGAA (double strand) [Psak]”: the binding result in data set [1] and in data set [2] was “binds” throughout.
